Article PMC9299292, “The nuclear egress complex of Epstein-Barr virus buds membranes through an oligomerization-driven mechanism” (PLoS Pathogens, 2022)

What was measured:
[1] = target: EBV NEC215-N31S_(BFLF2)/F267W_(BFLF2)-His8 (Epstein-Barr virus (strain B95-8)) (UniProt P03185)
[2] = target: EBV NEC215-N31S_(BFLF2)/L262F_(BFLF2)-His8 (Epstein-Barr virus (strain B95-8)) (UniProt P03185)
[3] = target: EBV NEC215-N121Q_(BFRF1)/N31S_(BFLF2)-His8 (Epstein-Barr virus (strain B95-8)) (UniProt P03185)
[4] = target: EBV NEC215-Q43A_(BFRF1)/N31S_(BFLF2)-His8 (Epstein-Barr virus (strain B95-8)) (UniProt P03185)
[5] = target: the molecule itself; assay: crystal structure; EBV NEC195Δ65; hanging drops at 20°C, protein in 20 mM HEPES pH 8.0, 100 mM NaCl, 0.5 mM TCEP over 25% PEG 3350, 0.1 M Tris-HCl pH 8.5, 0.2 M Li2SO4; space group P4(3)2(1)2, five heterodimers in the asymmetric unit; 3.97 Å

## EBV NEC215-N31S_(BFLF2)/F267W_(BFLF2)-His8 (from UniProt P03185 1-215; P0CK47 1-318) (complex)
[1]
  in-vitro GUV budding assay (intraluminal vesicles, 1.5 uM NEC, Ni-chelating lipids), against WT EBV NEC215-N31S (BFLF2)-His8 (% of the WT EBV NEC): < 25

## EBV NEC215-N31S_(BFLF2)/L262F_(BFLF2)-His8 (from UniProt P03185 1-215; P0CK47 1-318) (complex)
[2]
  in-vitro GUV budding assay (intraluminal vesicles, 1.5 uM NEC, Ni-chelating lipids), against WT EBV NEC215-N31S (BFLF2)-His8 (% of the WT EBV NEC): < 25

## EBV NEC215-N121Q_(BFRF1)/N31S_(BFLF2)-His8 (from UniProt P03185 1-215; P0CK47 1-318) (complex)
[3]
  in-vitro GUV budding assay (intraluminal vesicles, 1.5 uM NEC, Ni-chelating lipids), against WT EBV NEC215-N31S (BFLF2)-His8: 2 fold

## EBV NEC215-Q43A_(BFRF1)/N31S_(BFLF2)-His8 (from UniProt P03185 1-215; P0CK47 1-318) (complex)
[4]
  in-vitro GUV budding assay (intraluminal vesicles, 1.5 uM NEC, Ni-chelating lipids), against WT EBV NEC215-N31S (BFLF2)-His8 (% of the WT EBV NEC): < 25

B1: EBV NEC195Δ65 (complex)
chain 1: MASPEERLLDELNNVIVSFLCDSGSLEVERCSGAHVFSRGSSQPLCTVKLRHGQIYHLEFVYKFLAFKLKNCNYPSSPVFVISNNGLATTLRCFLHEPSGLRSGQSGPCLGLSTDVDLPKNSIIMLGQDDFIKFKSPLVFPAELDLLKSMVVCRAYITEHRTTMQFLVFQAANAQKASRVMDMISDMSQQLSRSG
chain 2: RSICSRHTRHGVDRSHFSLRDFFRGISANFELGKDFLREMNTPIHVSEAVFLPLSLCTLSPGRCLRLSPFGHSLTLGSHCEICINRSQVHVPQEFSSTQLSFFNNVHKIIPNKTFYVSLLSSSPSAVKAGLSQPSLLYAYLVTGHFCGTICPIFSTNGKGRLIMHLLLQGTSLHIPETCLKLLCENIGPTYELAVDLVGDAFCIKVSPRDTVYEKAVNVDEDAIYEAIKDLECGDELRLQIINYTQLILENKQ
notes: BFRF1 of Epstein-Barr virus strain B95-8, residues 1-195; BFLF2 of Epstein-Barr virus strain B95-8, residues 66-318; Heterodimer of m1 and m2; used for the NEC/NEC dimers seen in the crystal; also called nuclear egress complex; NEC1-5 (copies in the crystal); source: E. coli Rosetta (DE3), co-expressed, purified (Ni-NTA, glutathione Sepharose, S75 size exclusion); not shown: GST, …
[5]
  binding result: binds
